# Experimental data taken from patent US20160153985A1.
# Tests used:
# [1] = biological target: pure human iC3b (Complement Technology, A115) (human) (UniProt P01024); test: sandwich ELISA, capture A209 (Example 5), goat anti-C3-HRP; TABLE 6 well A5, blocker
# [2] = biological target: pure human iC3b (Complement Technology, A115) (human) (UniProt P01024); test: sandwich ELISA, capture A209 (Example 5), goat anti-C3-HRP; TABLE 6 well A7, blocker
# [3] = biological target: pure human iC3b (Complement Technology, A115) (human) (UniProt P01024); test: sandwich ELISA, capture A209 (Example 5), goat anti-C3-HRP; TABLE 6 well A8, blocker
# [4] = biological target: pure human iC3b (Complement Technology, A115) (human) (UniProt P01024); test: sandwich ELISA, capture A209 (Example 5), goat anti-C3-HRP; TABLE 6 well A9, blocker
# [5] = biological target: pure human iC3b (Complement Technology, A115) (human) (UniProt P01024); test: sandwich ELISA, capture A209 (Example 5), goat anti-C3-HRP; TABLE 6 well B2, blocker
# [6] = biological target: pure human iC3b (Complement Technology, A115) (human) (UniProt P01024); test: sandwich ELISA, capture A209 (Example 5), goat anti-C3-HRP; TABLE 6 well B5, blocker
# [7] = biological target: pure human iC3b (Complement Technology, A115) (human) (UniProt P01024); test: sandwich ELISA, capture A209 (Example 5), goat anti-C3-HRP; TABLE 6 well B6, blocker
# [8] = biological target: pure human iC3b (Complement Technology, A115) (human) (UniProt P01024); test: sandwich ELISA, capture A209 (Example 5), goat anti-C3-HRP; TABLE 6 well C2, 30% vitreous
# [9] = biological target: pure human iC3b (Complement Technology, A115) (human) (UniProt P01024); test: sandwich ELISA, capture A209 (Example 5), goat anti-C3-HRP; TABLE 6 well C5, 30% vitreous
# [10] = biological target: pure human iC3b (Complement Technology, A115) (human) (UniProt P01024); test: sandwich ELISA, capture A209 (Example 5), goat anti-C3-HRP; TABLE 6 well C8, 30% vitreous
# [11] = biological target: pure human iC3b (Complement Technology, A115) (human) (UniProt P01024); test: sandwich ELISA, capture A209 (Example 5), goat anti-C3-HRP; TABLE 6 well C9, 30% vitreous
# [12] = biological target: pure human iC3b (Complement Technology, A115) (human) (UniProt P01024); test: sandwich ELISA, capture A209 (Example 5), goat anti-C3-HRP; TABLE 6 well D2, 30% vitreous
# [13] = biological target: pure human iC3b (Complement Technology, A115) (human) (UniProt P01024); test: sandwich ELISA, capture A209 (Example 5), goat anti-C3-HRP; TABLE 6 well D5, 30% vitreous
# [14] = biological target: pure human iC3b (Complement Technology, A115) (human) (UniProt P01024); test: sandwich ELISA, capture A209 (Example 5), goat anti-C3-HRP; TABLE 6 well D7, 30% vitreous
# [15] = biological target: pure human iC3b (Complement Technology, A115) (human) (UniProt P01024); test: sandwich ELISA, capture A209 (Example 5), goat anti-C3-HRP; TABLE 6 well D9, 30% vitreous
# [16] = biological target: pure human iC3b (Complement Technology, A115) (human) (UniProt P01024); test: sandwich ELISA, capture A209 (Example 5), goat anti-C3-HRP; TABLE 6 well E2, 20% vitreous
# [17] = biological target: pure human iC3b (Complement Technology, A115) (human) (UniProt P01024); test: sandwich ELISA, capture A209 (Example 5), goat anti-C3-HRP; TABLE 6 well E3, 20% vitreous
# [18] = biological target: pure human iC3b (Complement Technology, A115) (human) (UniProt P01024); test: sandwich ELISA, capture A209 (Example 5), goat anti-C3-HRP; TABLE 6 well F3, 20% vitreous
# [19] = biological target: pure human iC3b (Complement Technology, A115) (human) (UniProt P01024); test: sandwich ELISA, capture A209 (Example 5), goat anti-C3-HRP; TABLE 6 well F4, 20% vitreous
# [20] = biological target: pure human iC3b (Complement Technology, A115) (human) (UniProt P01024); test: sandwich ELISA, capture A209 (Example 5), goat anti-C3-HRP; TABLE 6 well F7, 20% vitreous
# [21] = biological target: pure human iC3b (Complement Technology, A115) (human) (UniProt P01024); test: sandwich ELISA, capture A209 (Example 5), goat anti-C3-HRP; TABLE 6 well G7, 10% vitreous
# [22] = biological target: pure human iC3b (Complement Technology, A115) (human) (UniProt P01024); test: sandwich ELISA, capture A209 (Example 5), goat anti-C3-HRP; TABLE 6 well H6, 10% vitreous
# [23] = biological target: pure human iC3b (Complement Technology, A115) (human) (UniProt P01024); test: sandwich ELISA, capture A209 (Example 5), goat anti-C3-HRP; TABLE 6 well H8, 10% vitreous
# [24] = biological target: pure human iC3b (Complement Technology, A115) (human) (UniProt P01024); test: sandwich ELISA, capture A209 (Example 5), goat anti-C3-HRP; TABLE 7, iC3b in 10% vitreous
# [25] = biological target: pure human iC3b (Complement Technology, A115) (human) (UniProt P01024); test: sandwich ELISA of Example 5, iC3b concentration labeled 0.0125 in 20% human vitreous, duplicate 1
# Chain of UniProt P01024 (P01024 23-667 limits assumed, chain 1 of 3): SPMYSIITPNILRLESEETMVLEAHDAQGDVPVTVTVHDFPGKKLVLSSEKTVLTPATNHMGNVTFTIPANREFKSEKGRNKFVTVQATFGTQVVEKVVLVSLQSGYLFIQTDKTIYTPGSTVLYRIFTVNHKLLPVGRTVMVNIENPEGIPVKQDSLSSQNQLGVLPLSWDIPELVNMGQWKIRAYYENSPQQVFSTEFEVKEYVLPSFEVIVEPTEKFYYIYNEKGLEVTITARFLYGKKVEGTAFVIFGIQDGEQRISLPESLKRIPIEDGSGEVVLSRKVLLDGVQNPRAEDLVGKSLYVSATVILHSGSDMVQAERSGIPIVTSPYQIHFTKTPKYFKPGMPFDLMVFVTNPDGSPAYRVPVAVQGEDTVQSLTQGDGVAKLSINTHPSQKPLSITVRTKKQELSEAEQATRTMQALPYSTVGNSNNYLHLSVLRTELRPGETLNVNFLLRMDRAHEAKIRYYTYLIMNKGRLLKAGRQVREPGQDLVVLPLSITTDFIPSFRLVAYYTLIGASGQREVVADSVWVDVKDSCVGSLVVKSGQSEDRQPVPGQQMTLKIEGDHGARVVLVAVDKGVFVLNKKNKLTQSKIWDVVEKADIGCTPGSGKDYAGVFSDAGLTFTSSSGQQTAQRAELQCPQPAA
# Chain of UniProt P01024 (P01024 749-1303 limits assumed, chain 2 of 3): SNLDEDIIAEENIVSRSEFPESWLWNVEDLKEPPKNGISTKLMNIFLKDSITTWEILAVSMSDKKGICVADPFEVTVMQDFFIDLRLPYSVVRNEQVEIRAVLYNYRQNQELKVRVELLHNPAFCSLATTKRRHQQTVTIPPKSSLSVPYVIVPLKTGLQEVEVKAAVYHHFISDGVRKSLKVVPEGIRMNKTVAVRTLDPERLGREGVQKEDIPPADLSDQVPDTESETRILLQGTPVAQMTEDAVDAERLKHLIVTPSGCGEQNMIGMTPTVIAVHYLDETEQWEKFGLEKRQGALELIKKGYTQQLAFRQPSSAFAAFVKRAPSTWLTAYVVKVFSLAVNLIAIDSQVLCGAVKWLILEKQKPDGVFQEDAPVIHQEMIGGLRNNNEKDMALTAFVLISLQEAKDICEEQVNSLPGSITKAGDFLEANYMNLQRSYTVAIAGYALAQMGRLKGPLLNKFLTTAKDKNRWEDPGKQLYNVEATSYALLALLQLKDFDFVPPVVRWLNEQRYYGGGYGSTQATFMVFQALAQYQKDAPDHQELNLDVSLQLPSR
# Chain of UniProt P01024 (P01024 1321-1663 limits assumed, chain 3 of 3): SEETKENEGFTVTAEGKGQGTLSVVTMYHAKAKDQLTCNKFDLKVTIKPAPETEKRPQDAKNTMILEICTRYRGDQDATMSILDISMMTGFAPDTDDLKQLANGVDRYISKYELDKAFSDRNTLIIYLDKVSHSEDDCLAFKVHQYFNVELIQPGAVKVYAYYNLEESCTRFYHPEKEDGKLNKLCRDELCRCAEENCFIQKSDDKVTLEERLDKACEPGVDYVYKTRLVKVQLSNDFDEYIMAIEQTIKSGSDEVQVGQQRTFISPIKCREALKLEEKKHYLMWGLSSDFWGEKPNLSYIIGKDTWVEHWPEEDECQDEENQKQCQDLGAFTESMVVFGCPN
substance,measurement,setting,value
mouse anti-iC3b antibody A209 (Quidel),raw A450 at iC3b 0.125 ug/ml,[1],0.106 OD
same,raw A450 at iC3b 0.031 ug/ml,[2],0.053 OD
same,raw A450 at iC3b 0.016 ug/ml,[3],0.043 OD
same,raw A450 at iC3b 0.0078 ug/ml,[4],0.035 OD
same,raw A450 at iC3b 1 ug/ml,[5],0.344 OD
same,raw A450 at iC3b 0.125 ug/ml,[6],0.1 OD
same,raw A450 at iC3b 0.063 ug/ml,[7],0.07 OD
same,raw A450 at iC3b 1 ug/ml,[8],0.443 OD
same,raw A450 at iC3b 0.125 ug/ml,[9],0.385 OD
same,raw A450 at iC3b 0.016 ug/ml,[10],0.336 OD
same,raw A450 at iC3b 0.0078 ug/ml,[11],0.368 OD
same,raw A450 at iC3b 1 ug/ml,[12],0.453 OD
same,raw A450 at iC3b 0.125 ug/ml,[13],0.391 OD
same,raw A450 at iC3b 0.031 ug/ml,[14],0.356 OD
same,raw A450 at iC3b 0.0078 ug/ml,[15],0.362 OD
same,raw A450 at iC3b 1 ug/ml,[16],0.485 OD
same,raw A450 at iC3b 0.5 ug/ml,[17],0.442 OD
same,raw A450 at iC3b 0.5 ug/ml,[18],0.45 OD
same,raw A450 at iC3b 0.25 ug/ml,[19],0.435 OD
same,raw A450 at iC3b 0.031 ug/ml,[20],0.333 OD
same,raw A450 at iC3b 0.031 ug/ml,[21],0.248 OD
same,raw A450 at iC3b 0.063 ug/ml,[22],0.23 OD
same,raw A450 at iC3b 0.016 ug/ml,[23],0.237 OD
same,A450 minus matrix average at iC3b 0.0078 ug/ml,[24],-0.008 OD
same,A450 minus matrix average at iC3b 0.016 ug/ml,[24],0.006 OD
same,A450 minus matrix average at iC3b 0.031 ug/ml,[24],0.014 OD
same,A450 minus matrix average at iC3b 0.063 ug/ml,[24],0.017 OD
same,A450 minus matrix average at iC3b 0.125 ug/ml,[24],0.062 OD
same,A450 minus matrix average at iC3b 0.25 ug/ml,[24],0.056 OD
same,A450 minus matrix average at iC3b 0.5 ug/ml,[24],0.125 OD
same,A450 minus matrix average at iC3b 1 ug/ml,[24],0.239 OD
same,"absorbance A450, raw",[25],0.361 A450
